Experiments:
[1] = target: hERG (Homo sapiens, UniProt Q12809); test: in vitro; details: 100% = no change, <100% = inhibition
How it was run: (§1)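 Peptides were tested in duplicate at final 20 μM and 200 nM, with concentration set by amino acid analysis, in HEPES-buffered saline. They were applied for at least 5 min to HEK293 or CHO cells transfected with each channel. Currents were expressed as % inhibition, 1-(Ipeptide/Icontrol)×100, or % activation, Ipeptide/Icontrol×100, against a channel-matched reference compound.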

[2] = target: Nav1.5 (Homo sapiens, UniProt Q14524); test: in vitro; details: 100% = no change; for Activity of Nav1.5 with peptide, expressed as a percentage of the reference compound: peptide at 0.2 μM; for Activity of Nav1.5 with peptide (percentage of the reference compound): peptide at 20 μM
Sequence of Nav1.5 (Q14524 whole entry): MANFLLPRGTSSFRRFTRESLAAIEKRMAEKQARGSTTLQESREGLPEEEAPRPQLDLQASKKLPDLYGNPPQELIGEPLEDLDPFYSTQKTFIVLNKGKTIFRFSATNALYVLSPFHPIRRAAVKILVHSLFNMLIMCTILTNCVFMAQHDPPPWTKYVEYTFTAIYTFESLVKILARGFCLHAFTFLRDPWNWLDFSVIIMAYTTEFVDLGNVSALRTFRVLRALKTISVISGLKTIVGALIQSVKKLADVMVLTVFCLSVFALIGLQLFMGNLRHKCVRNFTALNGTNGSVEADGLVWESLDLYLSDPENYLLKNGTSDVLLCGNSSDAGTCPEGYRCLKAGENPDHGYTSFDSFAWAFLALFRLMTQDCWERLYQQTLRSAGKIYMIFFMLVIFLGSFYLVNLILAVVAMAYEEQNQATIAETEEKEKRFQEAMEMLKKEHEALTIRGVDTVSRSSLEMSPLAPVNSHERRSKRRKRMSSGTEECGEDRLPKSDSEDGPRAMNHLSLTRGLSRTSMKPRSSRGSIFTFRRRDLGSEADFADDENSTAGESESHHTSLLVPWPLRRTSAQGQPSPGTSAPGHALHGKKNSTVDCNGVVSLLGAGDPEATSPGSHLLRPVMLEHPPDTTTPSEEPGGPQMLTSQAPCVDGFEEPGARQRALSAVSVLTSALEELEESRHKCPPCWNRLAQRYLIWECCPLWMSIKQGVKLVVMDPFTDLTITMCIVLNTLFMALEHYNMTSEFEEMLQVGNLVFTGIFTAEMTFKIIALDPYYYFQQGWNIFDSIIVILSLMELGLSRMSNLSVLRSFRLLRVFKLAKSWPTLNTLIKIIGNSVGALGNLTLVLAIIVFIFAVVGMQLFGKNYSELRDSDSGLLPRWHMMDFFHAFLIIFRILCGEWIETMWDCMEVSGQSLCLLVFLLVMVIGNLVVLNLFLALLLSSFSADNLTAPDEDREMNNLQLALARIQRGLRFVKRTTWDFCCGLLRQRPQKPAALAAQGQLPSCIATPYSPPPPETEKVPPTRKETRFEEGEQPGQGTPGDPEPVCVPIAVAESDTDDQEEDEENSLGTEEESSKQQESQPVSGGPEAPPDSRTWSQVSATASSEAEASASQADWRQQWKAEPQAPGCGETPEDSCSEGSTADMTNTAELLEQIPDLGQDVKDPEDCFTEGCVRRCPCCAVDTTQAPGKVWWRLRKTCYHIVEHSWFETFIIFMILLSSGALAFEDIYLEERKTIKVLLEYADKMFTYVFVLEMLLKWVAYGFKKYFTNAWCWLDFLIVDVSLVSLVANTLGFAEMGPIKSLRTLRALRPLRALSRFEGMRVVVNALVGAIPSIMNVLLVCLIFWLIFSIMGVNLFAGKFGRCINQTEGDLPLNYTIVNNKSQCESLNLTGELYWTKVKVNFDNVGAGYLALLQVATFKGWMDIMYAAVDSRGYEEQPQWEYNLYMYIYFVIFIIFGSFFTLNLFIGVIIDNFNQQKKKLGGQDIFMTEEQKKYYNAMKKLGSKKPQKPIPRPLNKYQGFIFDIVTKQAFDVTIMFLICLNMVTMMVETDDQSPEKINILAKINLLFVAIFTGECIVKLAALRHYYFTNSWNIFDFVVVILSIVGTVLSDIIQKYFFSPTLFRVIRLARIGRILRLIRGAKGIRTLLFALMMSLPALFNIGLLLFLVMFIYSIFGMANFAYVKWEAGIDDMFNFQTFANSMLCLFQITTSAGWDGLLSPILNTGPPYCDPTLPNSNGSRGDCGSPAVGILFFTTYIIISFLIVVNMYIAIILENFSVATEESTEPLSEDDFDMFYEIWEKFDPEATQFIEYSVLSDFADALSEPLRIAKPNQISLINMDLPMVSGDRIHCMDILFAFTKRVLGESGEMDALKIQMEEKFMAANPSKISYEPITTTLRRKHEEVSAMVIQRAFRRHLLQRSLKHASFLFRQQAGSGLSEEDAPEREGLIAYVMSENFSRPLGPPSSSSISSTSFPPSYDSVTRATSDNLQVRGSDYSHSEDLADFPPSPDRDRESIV
How it was run: as §1

[3] = test system: GABA; test: Ion channel panel (IonWorks Barracuda): GABA; type: cell-based; details: 100% = no change, <100% = inhibition
How it was run: as §1

[4] = target: T1, TRPA1 (Homo sapiens, UniProt O75762); test: Ion channel panel (IonWorks Barracuda): TRPA1; type: cell-based; details: 100% = no change, <100% = inhibition
T1 construct: host or cells: HEK293 or CHO
How it was run: as §1

[5] = target: T2, Kv2.1 (Homo sapiens, UniProt Q14721); test: cell-based; details: 100% = no change, <100% = inhibition
T2 construct: host or cells: HEK293 or CHO
How it was run: as §1

[6] = target: T3, Cav2.1 (Homo sapiens, UniProt O00555); test: cell-based; details: 100% = no change, <100% = inhibition
T3 construct: host or cells: HEK293 or CHO
How it was run: as §1

[7] = target: T4, Cav2.2 (Homo sapiens, UniProt Q00975); test: cell-based; details: 100% = no change, <100% = inhibition
T4 construct: host or cells: HEK293 or CHO
How it was run: as §1

[8] = target: T5, α3β4 (Homo sapiens, UniProt P30926+P32297); test: Ion channel panel (IonWorks Barracuda): α3β4; type: cell-based; details: 100% = no change, <100% = inhibition
T5 construct: host or cells: HEK293 or CHO
How it was run: as §1

[9] = target: T6, NR2A (Homo sapiens, UniProt Q12879); test: Ion channel panel (IonWorks Barracuda): NR2A; type: cell-based; details: 100% = no change, <100% = inhibition
T6 construct: host or cells: HEK293 or CHO
How it was run: as §1

[10] = target: T7, Nav1.7 (Homo sapiens, UniProt Q15858); test: cell-based; type: cell-based; details: 100% = no change; for Activity of Nav1.7 with peptide, expressed as a percentage of the reference compound: peptide at 0.2 μM; for Activity of Nav1.7 with peptide (percentage of the reference compound): peptide at 20 μM
T7 construct: host or cells: HEK293 or CHO
T7 sequence (Q15858 whole entry): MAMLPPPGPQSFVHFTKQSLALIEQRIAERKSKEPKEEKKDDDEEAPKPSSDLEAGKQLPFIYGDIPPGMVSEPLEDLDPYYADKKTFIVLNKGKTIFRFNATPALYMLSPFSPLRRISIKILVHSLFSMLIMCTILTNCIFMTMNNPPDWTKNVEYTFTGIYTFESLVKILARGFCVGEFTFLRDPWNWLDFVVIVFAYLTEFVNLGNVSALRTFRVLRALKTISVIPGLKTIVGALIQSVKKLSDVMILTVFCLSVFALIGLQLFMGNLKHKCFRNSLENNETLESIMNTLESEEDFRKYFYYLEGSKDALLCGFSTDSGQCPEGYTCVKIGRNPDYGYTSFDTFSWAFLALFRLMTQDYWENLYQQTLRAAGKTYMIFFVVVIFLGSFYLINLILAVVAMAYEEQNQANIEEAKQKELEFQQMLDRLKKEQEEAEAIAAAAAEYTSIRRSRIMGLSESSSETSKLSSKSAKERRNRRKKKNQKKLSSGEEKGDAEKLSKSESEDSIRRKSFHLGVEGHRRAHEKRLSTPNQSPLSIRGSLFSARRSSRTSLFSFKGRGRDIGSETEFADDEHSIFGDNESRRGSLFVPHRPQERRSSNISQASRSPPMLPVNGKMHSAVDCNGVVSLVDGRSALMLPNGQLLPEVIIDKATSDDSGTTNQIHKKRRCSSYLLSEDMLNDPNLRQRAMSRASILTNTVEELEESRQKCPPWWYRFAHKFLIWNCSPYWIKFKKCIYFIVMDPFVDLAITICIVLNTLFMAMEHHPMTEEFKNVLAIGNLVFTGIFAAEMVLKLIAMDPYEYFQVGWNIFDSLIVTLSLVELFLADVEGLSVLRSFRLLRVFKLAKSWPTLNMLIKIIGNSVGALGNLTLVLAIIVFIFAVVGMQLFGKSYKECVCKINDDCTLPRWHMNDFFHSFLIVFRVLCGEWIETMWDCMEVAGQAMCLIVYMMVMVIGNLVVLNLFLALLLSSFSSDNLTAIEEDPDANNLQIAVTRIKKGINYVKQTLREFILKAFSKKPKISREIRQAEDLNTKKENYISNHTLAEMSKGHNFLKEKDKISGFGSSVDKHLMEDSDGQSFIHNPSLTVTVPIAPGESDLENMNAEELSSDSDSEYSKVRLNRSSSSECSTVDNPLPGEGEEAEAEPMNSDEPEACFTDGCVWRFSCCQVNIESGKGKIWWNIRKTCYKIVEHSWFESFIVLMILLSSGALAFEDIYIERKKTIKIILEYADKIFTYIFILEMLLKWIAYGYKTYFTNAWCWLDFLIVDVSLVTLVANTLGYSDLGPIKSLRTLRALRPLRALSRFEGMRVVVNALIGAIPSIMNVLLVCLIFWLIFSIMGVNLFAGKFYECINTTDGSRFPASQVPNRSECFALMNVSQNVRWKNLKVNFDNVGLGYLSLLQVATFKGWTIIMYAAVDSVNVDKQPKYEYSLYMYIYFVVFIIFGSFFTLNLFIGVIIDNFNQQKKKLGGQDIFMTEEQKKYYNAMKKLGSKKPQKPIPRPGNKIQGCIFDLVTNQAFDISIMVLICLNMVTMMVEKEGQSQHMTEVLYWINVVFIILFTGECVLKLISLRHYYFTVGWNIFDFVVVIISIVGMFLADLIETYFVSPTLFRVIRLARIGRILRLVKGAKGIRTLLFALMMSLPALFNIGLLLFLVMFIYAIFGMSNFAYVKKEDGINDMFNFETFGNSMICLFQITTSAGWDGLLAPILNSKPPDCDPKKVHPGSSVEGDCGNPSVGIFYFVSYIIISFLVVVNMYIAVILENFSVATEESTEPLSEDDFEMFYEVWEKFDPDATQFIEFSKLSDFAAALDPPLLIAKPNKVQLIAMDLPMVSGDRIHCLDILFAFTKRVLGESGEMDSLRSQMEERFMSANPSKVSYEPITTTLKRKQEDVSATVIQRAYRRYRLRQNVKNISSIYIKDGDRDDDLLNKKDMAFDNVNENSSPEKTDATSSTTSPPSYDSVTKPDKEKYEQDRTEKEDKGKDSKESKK

[11] = target: T8, NR2B (Homo sapiens, UniProt Q13224); test: Ion channel panel (IonWorks Barracuda): NR2B; type: cell-based; details: 100% = no change, <100% = inhibition
T8 construct: host or cells: HEK293 or CHO
How it was run: as §1

[12] = target: T9, TRPV1 (Homo sapiens, UniProt Q8NER1); test: Ion channel panel (IonWorks Barracuda): TRPV1; type: cell-based; details: 100% = no change, <100% = inhibition
T9 construct: host or cells: HEK293 or CHO
How it was run: as §1

[13] = target: T10, Kir2.1 (Homo sapiens, UniProt P63252); test: Ion channel panel (IonWorks Barracuda): Kir2.1; type: cell-based; details: 100% = no change, <100% = inhibition
T10 construct: host or cells: HEK293 or CHO
How it was run: as §1

[14] = target: T11, Kv1.3 (Homo sapiens, UniProt P22001); test: cell-based; type: cell-based; details: 100% = no change, <100% = inhibition
T11 construct: host or cells: HEK293 or CHO
How it was run: as §1

[15] = target: T12, Kv1.1 (Homo sapiens, UniProt Q09470); test: cell-based; type: cell-based; details: 100% = no change, <100% = inhibition
T12 construct: host or cells: HEK293 or CHO
How it was run: as §1

[16] = target: T13, Kv1.2 (Homo sapiens, UniProt P16389); test: cell-based; type: cell-based; details: 100% = no change, <100% = inhibition
T13 construct: host or cells: HEK293 or CHO
How it was run: as §1

[17] = target: T14, α4β2 (Homo sapiens, UniProt P17787+P43681); test: Ion channel panel (IonWorks Barracuda): α4β2; type: cell-based; details: 100% = no change, <100% = inhibition
T14 construct: host or cells: HEK293 or CHO
T14 sequence (P43681 29-627): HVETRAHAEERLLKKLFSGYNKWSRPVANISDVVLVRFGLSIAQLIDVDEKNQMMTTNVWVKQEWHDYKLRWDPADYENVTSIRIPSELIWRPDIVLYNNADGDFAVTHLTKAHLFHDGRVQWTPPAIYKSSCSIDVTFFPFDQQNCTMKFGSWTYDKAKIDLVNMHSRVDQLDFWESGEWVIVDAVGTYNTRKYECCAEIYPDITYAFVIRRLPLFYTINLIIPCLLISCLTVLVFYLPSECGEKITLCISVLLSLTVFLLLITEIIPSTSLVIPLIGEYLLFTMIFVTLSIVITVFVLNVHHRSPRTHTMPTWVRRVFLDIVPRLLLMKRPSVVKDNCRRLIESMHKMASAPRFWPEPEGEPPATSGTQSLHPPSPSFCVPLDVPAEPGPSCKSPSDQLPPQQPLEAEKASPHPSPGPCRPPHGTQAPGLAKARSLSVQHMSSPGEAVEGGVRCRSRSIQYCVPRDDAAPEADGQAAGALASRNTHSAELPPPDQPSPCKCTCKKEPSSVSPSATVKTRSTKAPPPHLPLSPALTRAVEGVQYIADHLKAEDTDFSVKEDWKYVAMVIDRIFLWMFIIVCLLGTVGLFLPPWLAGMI
T14 sequence (P17787 26-502): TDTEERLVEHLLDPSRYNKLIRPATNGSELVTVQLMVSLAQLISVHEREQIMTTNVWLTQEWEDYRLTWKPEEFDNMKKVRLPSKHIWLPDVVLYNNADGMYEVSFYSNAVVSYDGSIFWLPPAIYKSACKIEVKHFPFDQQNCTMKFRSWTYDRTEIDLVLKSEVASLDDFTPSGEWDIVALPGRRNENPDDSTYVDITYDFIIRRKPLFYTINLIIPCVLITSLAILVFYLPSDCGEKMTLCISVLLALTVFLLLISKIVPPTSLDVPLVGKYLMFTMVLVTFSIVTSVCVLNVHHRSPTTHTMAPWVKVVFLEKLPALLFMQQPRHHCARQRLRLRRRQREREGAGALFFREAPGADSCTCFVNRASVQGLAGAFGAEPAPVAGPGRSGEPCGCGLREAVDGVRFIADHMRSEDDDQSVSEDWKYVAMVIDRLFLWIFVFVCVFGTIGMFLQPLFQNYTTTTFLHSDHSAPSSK
How it was run: as §1

[18] = target: T15, 5HT3a (Homo sapiens, UniProt P46098); test: Ion channel panel (IonWorks Barracuda): 5HT3a; type: cell-based
T15 construct: host or cells: HEK293 or CHO
T15 sequence (P46098 whole entry, looked up): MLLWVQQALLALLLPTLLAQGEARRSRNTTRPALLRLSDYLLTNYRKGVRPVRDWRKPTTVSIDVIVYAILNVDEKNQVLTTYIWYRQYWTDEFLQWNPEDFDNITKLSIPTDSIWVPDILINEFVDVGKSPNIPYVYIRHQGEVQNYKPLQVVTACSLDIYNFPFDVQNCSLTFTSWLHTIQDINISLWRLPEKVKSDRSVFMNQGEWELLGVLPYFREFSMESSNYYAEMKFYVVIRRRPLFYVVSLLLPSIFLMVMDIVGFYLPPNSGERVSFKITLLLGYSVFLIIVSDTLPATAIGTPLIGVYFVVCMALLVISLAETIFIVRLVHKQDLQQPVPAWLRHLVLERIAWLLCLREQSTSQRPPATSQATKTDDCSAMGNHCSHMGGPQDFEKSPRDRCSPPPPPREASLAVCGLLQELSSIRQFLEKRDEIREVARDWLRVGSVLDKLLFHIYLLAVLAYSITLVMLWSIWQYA
How it was run: as §1

[19] = first of two Nav1.5 columns (probably TP1)
[20] = second of two Nav1.5 columns (probably TP2)
[21] = first of two Nav1.7 columns (probably TP1)
[22] = second of two Nav1.7 columns (probably TP2)

With “19 (GSQFTDVKCTGSKQCWPVCKQMFGKPNGKCMNGKCRCYS) [compound 19]” the “Activity of hERG with peptide, expressed as a percentage of the reference compound” value ([1]; peptide at 0.2 μM) was 98%, the “Activity of hERG with peptide (percentage of the reference compound)” value ([1]; peptide at 20 μM) was 86% and the “Activity of Nav1.5 with peptide, expressed as a percentage of the reference compound” value [2, 19] was 112%. For the same substance, the “Activity of Nav1.5 with peptide, expressed as a percentage of the reference compound” value [2, 20] was 114%, the “Activity of Nav1.5 with peptide (percentage of the reference compound)” value [2, 19] was 117% and the “Activity of Nav1.5 with peptide (percentage of the reference compound)” value [2, 20] was 117%. For the same substance, the “Activity of GABA with peptide, expressed as a percentage of the reference compound” value ([3]; peptide at 0.2 μM) was 93%, the “Activity of GABA with peptide (percentage of the reference compound)” value ([3]; peptide at 20 μM) was 111% and the “Activity of TRPA1 with peptide, expressed as a percentage of the reference compound” value ([4]; peptide at 0.2 μM) was 126%. For the same substance, the “Activity of TRPA1 with peptide (percentage of the reference compound)” value ([4]; peptide at 20 μM) was 109%, the “Activity of Kv2.1 with peptide, expressed as a percentage of the reference compound” value ([5]; peptide at 0.2 μM) was 95% and the “Activity of Kv2.1 with peptide (percentage of the reference compound)” value ([5]; peptide at 20 μM) was 108%. For the same substance, the “Activity of Cav2.1 with peptide, expressed as a percentage of the reference compound” value ([6]; peptide at 0.2 μM) was 106%, the “Activity of Cav2.1 with peptide (percentage of the reference compound)” value ([6]; peptide at 20 μM) was 109% and the “Activity of Cav2.2 with peptide, expressed as a percentage of the reference compound” value ([7]; peptide at 0.2 μM) was 116%. For the same substance, the “Activity of Cav2.2 with peptide (percentage of the reference compound)” value ([7]; peptide at 20 μM) was 94%, the “Activity of a3b4 with peptide, expressed as a percentage of the reference compound” value ([8]; peptide at 0.2 μM) was 101% and the “Activity of a3b4 with peptide (percentage of the reference compound)” value ([8]; peptide at 20 μM) was 97%. For the same substance, the “Activity of NR2A with peptide, expressed as a percentage of the reference compound” value ([9]; peptide at 0.2 μM) was 90%, the “Activity of NR2A with peptide (percentage of the reference compound)” value ([9]; peptide at 20 μM) was 99% and the “Activity of Nav1.7 with peptide, expressed as a percentage of the reference compound” value [10, 21] was 91%. The “Activity of Nav1.7 with peptide, expressed as a percentage of the reference compound” value [10, 22] was 92%, the “Activity of Nav1.7 with peptide (percentage of the reference compound)” value [10, 21] was 121% and the “Activity of Nav1.7 with peptide (percentage of the reference compound)” value [10, 22] was 140%. For the same substance, the “Activity of NR2B with peptide, expressed as a percentage of the reference compound” value ([11]; peptide at 0.2 μM) was 117%, the “Activity of NR2B with peptide (percentage of the reference compound)” value ([11]; peptide at 20 μM) was 130% and the “Activity of TRPV1 with peptide, expressed as a percentage of the reference compound” value ([12]; peptide at 0.2 μM) was 94%. For the same substance, the “Activity of TRPV1 with peptide (percentage of the reference compound)” value ([12]; peptide at 20 μM) was 90%, the “Activity of Kir2.1 with peptide, expressed as a percentage of the reference compound” value ([13]; peptide at 0.2 μM) was 107% and the “Activity of Kir2.1 with peptide (percentage of the reference compound)” value ([13]; peptide at 20 μM) was 93%. The “Activity of Kv1.3 with peptide, expressed as a percentage of the reference compound” value ([14]; peptide at 0.2 μM) was 4%, the “Activity of Kv1.3 with peptide (percentage of the reference compound)” value ([14]; peptide at 20 μM) was −1% and the “Activity of Kv1.1 with peptide, expressed as a percentage of the reference compound” value ([15]; peptide at 0.2 μM) was 100%. The “Activity of Kv1.1 with peptide (percentage of the reference compound)” value ([15]; peptide at 20 μM) was 44%, the “Activity of Kv1.2 with peptide, expressed as a percentage of the reference compound” value ([16]; peptide at 0.2 μM) was 41% and the “Activity of Kv1.2 with peptide (percentage of the reference compound)” value ([16]; peptide at 20 μM) was 37%. For the same substance, the “Activity of a4b2 with peptide, expressed as a percentage of the reference compound” value ([17]; peptide at 0.2 μM) was 99%, the “Activity of a4b2 with peptide (percentage of the reference compound)” value ([17]; peptide at 20 μM) was 93% and the “Activity of 5HT3a with peptide (percentage of the reference compound)” value [18] was 69%. The “Activity of 5HT3a with peptide, expressed as a percentage of the reference compound” value [18] was 89%.

Reference: patent US20200262877A1, “ION CHANNEL-BINDING PEPTIDES AND METHODS OF USE THEREOF” (priority 2017, published 2020)
